Experimental data: publication PMC8427864, “Optimizing operational parameters for the enzymatic production of furandicarboxylic acid building block” (Microbial Cell Factories, 2021)

Experiments:
O=Cc1ccc(C=O)o1 = tested on: T1, O=Cc1ccc(C=O)o1; test: AmplexRed/HRP-coupled H2O2 assay, continuous steady state; assay type: biochemical, Methylovorus sp. MP688; conditions: 50 mM Tris/HCl, pH 7.0, air oxygen as co-substrate
T1 construct: synthetic gene in pET23b(+), E. coli BL21(DE3)pLysS, purified by two anion-exchange steps; FAD-containing; no tag mentioned
From the text: (§1) AmplexRed/HRP-coupled H2O2 assay, continuous steady state on HMFO (hydroxymethylfurfural oxidase) WT | The saturation profiles for all the variants discarded any inhibitory effect by these two substrates

O=Cc1ccc(CO)o1 [1] = tested on: T2, O=Cc1ccc(CO)o1; test: as above; assay type: biochemical, Methylovorus sp. MP688; conditions: 50 mM Tris/HCl, pH 7.0, air oxygen as co-substrate
T2 construct: synthetic gene in pET23b(+), E. coli BL21(DE3)pLysS, purified by two anion-exchange steps; FAD-containing; no tag mentioned
From the text: as §1

[2] = molecular target: T3, HMFO (hydroxymethylfurfural oxidase) WT (Methylovorus sp. MP688, UniProt E4QP00); test: UV-visible spectra of folded enzyme and heat-released flavin; assay type: binding; conditions: flavin released at 95 °C, 5 min
T3 construct: gene MPQ_0130; synthetic gene in pET23b(+), E. coli BL21(DE3)pLysS, purified by two anion-exchange steps; FAD-containing; no tag mentioned
T3 sequence (E4QP00 1-531): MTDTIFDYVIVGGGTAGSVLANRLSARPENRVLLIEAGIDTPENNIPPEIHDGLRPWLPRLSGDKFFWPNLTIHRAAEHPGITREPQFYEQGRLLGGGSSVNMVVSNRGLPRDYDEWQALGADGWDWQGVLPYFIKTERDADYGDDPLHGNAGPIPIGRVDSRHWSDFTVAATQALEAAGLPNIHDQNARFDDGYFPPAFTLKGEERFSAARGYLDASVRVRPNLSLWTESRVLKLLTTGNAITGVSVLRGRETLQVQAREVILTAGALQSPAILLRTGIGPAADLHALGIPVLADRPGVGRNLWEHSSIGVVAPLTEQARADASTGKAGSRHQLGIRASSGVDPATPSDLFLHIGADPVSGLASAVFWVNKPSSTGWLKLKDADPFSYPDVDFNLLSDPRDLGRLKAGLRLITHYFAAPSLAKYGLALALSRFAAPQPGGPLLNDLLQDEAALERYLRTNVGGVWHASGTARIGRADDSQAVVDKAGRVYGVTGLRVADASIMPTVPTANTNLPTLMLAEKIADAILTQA

O=Cc1ccc(CO)o1 [3] = tested on: T2, O=Cc1ccc(CO)o1; test: AmplexRed/HRP-coupled H2O2 assay, continuous steady state; assay type: biochemical, Methylovorus sp. MP688; conditions: 50 mM Tris/HCl, pH 7.0, air oxygen as co-substrate, 8BxHMFO (Methods print G356K)

Compound | Km (O=Cc1ccc(C=O)o1) | kcat (O=Cc1ccc(C=O)o1) | Km (O=Cc1ccc(CO)o1 [1]) | kcat (O=Cc1ccc(CO)o1 [1]) | UV-visible spectra of folded enzyme and heat-released flavin [2] | Km (O=Cc1ccc(CO)o1 [3]) | kcat (O=Cc1ccc(CO)o1 [3])
HMFO (hydroxymethylfurfural oxidase) WT (Methylovorus sp. MP688; W466F) | 1.8 ± 0.3 mM | 0.005 ± 0.00017 s⁻¹ | 6.4 ± 0.5 mM | 0.0233 ± 0.0005 s⁻¹ | – | – | –
Cc1cc2nc3c(=O)[nH]c(=O)nc-3n(C[C@H](O)[C@H](O)[C@H](O)COP(=O)(O)OP(=O)(O)OC[C@H]3O[C@@H](n4cnc5c(N)ncnc54)[C@H](O)[C@@H]3O)c2cc1C [FAD] | – | – | – | – | The spectra of the folded enzymes and the free flavin, obtained by heat treatment | – | –
HMFO (hydroxymethylfurfural oxidase) WT (Methylovorus sp. MP688; V367R/W466F) | 4.9 ± 0.5 mM | 0.025 ± 0.00067 s⁻¹ | 23.1 ± 2.8 mM | 0.0567 ± 0.0033 s⁻¹ | – | – | –
HMFO (hydroxymethylfurfural oxidase) WT (Methylovorus sp. MP688; V367R) | 1.1 ± 0.2 mM | 0.0367 ± 0.0017 s⁻¹ | 4.2 ± 0.3 mM | 0.747 ± 0.0167 s⁻¹ | – | – | –
HMFO (hydroxymethylfurfural oxidase) WT (Methylovorus sp. MP688; A419Y/A435E/G356H/H74Y/I73V/T414K/V367R/W466F) | – | – | – | – | – | 17.1 ± 1.6 mM | 0.09 ± 0.0033 s⁻¹
